These results are taken from US7271143B1, “Peptides for regulation of urokinase (uPA) and tissue type (tPA) plasminogen activator and method of optimizing therapeutic efficacy” (Thrombotech Ltd., priority 2001, dated 2007).

Where two headings read alike, the source gives them in different places. Ends that are not written are not given here.

For data set [1] the following is noted: in vivo; cited from earlier work.
The subject of a further data set is isolated rat aorta rings. Kind of data set: PE-induced contraction of isolated rat aorta rings. Format: cell-based. How it is done: FIG. 1A is a diagram describing the results of experiments on the effect of tPA on PE-induced contraction of isolated rat aorta rings. Contraction of aortic rings was induced by increasing the concentrations of phenylephrine (PE), in the absence of tPA (full triangles) or in the presence of 1 nM (filled squares) or 20 nM tPA (empty squares).
FIG. 1B describes the results of experiments in which the contraction of aortic rings was induced in the absence of TNK-tPA (filled triangles), in the presence of 1 nM tPA (filled squares) or 20 nM tPA (empty squares).
FIG. 4 is a graph describing the effect of tPA on phenylepbrine-induced contraction of isolated rat aorta rings in vitro. The contraction of the aorta rings was induced by varying concentrations of phenylephrine in the absence of tPA (filled triangles), in the presence of 1 nM of TA (filled squares) or in the presence of 10 nM tPA (empty squares). The experiments were performed according to procedures described earlier by Haj-Yehia A et al., FASEB J, 2000, 14:1411–1422.
(§1) The effect of TNK-tPA on PE-induced contraction was compared with the effect of tPA, in the isolated aorta rings. The experimental procedure followed has been described earlier (Haj-Yehia A, Nassar T, Sachais B, Kuo A, Bdeir K., Al-Mehdi A-B, Mazar A, Cines D, Higazi A A-R. Urokinase-derived peptides regulate vascular smooth muscle contraction in vitro and in vivo. FASEB J 2000; 14:1411–1422.
FIG. 4 describes a graph describing the effect of TA on phenylephrine-induced contraction of isolated rat aorta rings in vitro. The contraction of the aorta rings was induced by varying concentrations of phenylephrine in the absence of tPA (filled triangles), in the presence of 1 nM of tPA (filled squares) or in the presence of 10 nM TA (empty squares). The experiments were performed according to procedures described earlier by Haj-Yehia A et al., FASEB J, 2000, 14:1411–1422.

For data set [2] the following is noted: in vivo; cited from earlier work. This is another data set of the same source.
Another data set addresses TNK-tPA (Homo sapiens, UniProt P00750, H332A/K331A/N152Q/R333A/R334A/T138N). Kind of data set: Effect on vasoactivity of TNK-tPA (PE-induced contraction of aorta rings). Format: cell-based. The method, then: (§2) FIG. 2 is a graphical representation of the results obtained in experiments to study the effect of PAI-1 on the vasoactivity of tPA. The EC50 of PE was determined in the absence (Control) or presence of 1 nM tPA, 20 nM tPA, 1 nM tPA and an equimolar concentration of PAI-1, 20 nM tPA and an equimolar concentration of PAI-1, 1 nM tPA and 2 μM of SEQ ID NO:1 or 20 nM tPA and 2 μM of SEQ ID NO:1.
The effect of TNK-tPA on PE-induced contraction was compared with the effect of tPA, in the isolated aorta rings.
PAI-1 interacts with tPA through independent sites; the catalytic site and a docking site, present in the amino acids […] to 299. The PAI-1 docking site is mutated in TNK-tPA. […] Madison E L, Goldsmith W. Gething M-J, H., Sambrook J F, Gerard R D. Restoration of serine protease-inhibitor interaction by protein engineering. Journal of Biological Chemistry. 1990; 265:21423–21426.
(§3) The effect of revertase and TNK-tPA on the PE induced vasocontraction was studied in presence or absence of the LRP antagonist (RAP) or anti LRP antibodies.

In data set [3] the target is T1, tPA (Homo sapiens, UniProt P00750). Kind of data set: Effect on vasoactivity of tPA (PE-induced contraction of aorta rings). Format: cell-based. The method, then:
as §2
FIG. 3 is a graphical representation of the results obtained in experiments to study the effect of RAP and anti-LRP antibodies on the vasoactivity of tPA. The EC50 of PE was determined in the absence (Control) or presence of 1 nM tPA, 20 nM tPA, 1 nM tPA and an equimolar concentration of PAI-1, 20 nM tPA and an equimolar concentration of PAI-1, 1 nM tPA and 2 μM of SEQ ID NO:1 or 20 nM tPA and 2 μM of SEQ ID NO:1.
FIG. 6 is a bar diagram describing the results of studies done on the effect of PAI-1 derived peptide on tPA vasoactivity. The constriction of aorta rings was induced by increasing the concentrations of phenylepbrine in the absence or presence of 1 nM tPA, 1 nM tPA and 1 OM SEQ ID NO:[…] tPA or 10 nM tPA and 1 OM of SEQ ID NO:1.
as §1
In an attempt to understand the basis for the modification in the vasoactivity of TNK-tPA, the role of the PAI-1 docking site in the process was examined.
as §3
(§4) FIG. 6 is a bar diagram describing the results of studies done on the effect of PAI-1 derived peptide on tPA vasoactivity. The constriction of aorta rings was induced by increasing the concentrations of phenylephrine in the absence or presence of 1 nM tPA, 1 nM tPA and 1 OM, 10 nM tPA or 10 nM tPA and 1 OM.

Data set [4] concerns the target T2, uPA (Homo sapiens, UniProt P00749). Kind of data set: Effect on vasoactivity of uPA (PE-induced contraction of aorta rings). In kind it is cell-based. The method, then: FIG. 5 is a bar diagram describing the results of experiments on the vasoactivity of uPA and tPA in the presence or absence of PAI-1, for example, the effect of 2 nM uPA or 1 nM tPA on phenylephrine induced vasoconstriction was determined in the presence or absence of equimolar concentrations of PAI-1.
FIG. 5 describes a bar diagram describing the results of experiments on the vasoactivity of uPA and tPA in the presence of absence of PAI-1, for example, the effect of 2 nM uPA or 1 nM tPA on phenylephrine induced vasoconstriction was determined in the presence or absence of equimolar concentrations of PAI-1.
as §4

In the next data set the target is scuPA (Homo sapiens, UniProt P00749). Kind of data set: Effect on fibrinolytic activity of scuPA (blood clot lysis). Format: biochemical.
Data set [5] addresses T2, uPA. Kind of data set: Effect on fibrinolytic activity of uPA. In kind it is biochemical.
The target of data set [6] is T1, tPA. Kind of data set: tPA mediated clot lysis / chromogenic assay of tPA activity. Format: biochemical. The method, then:
(§5) FIG. 7 is a bar diagram describing the results of experiments on the effect of PAI-1 derived peptide on tPA mediated clot lysis. The capacity of TA to induce clot lysis was determined in the presence and absence of 1 OM of SEQ ID NO:1. In these experiments, blood from volunteers was allowed to clot at room temperature for one hour, the blood clot was separated from the plasma, placed on absorbing paper to remove all the serum and cut into several pieces. The pieces were weighed, and placed in PBS buffer alone or containing 100 nM tPA, with or without 1 OM of SEQ ID NO:1. After incubation for 3 hours at room temperature, the thrombi are separated from the medium, dried and weighed.
as §5, with “of tPA” for “of TA”, “of 10 M.” for “of 1 OM of SEQ ID NO:1.”, “without 10M.” for “without 1 OM of SEQ ID NO:1.”, “weighed. […]” for “weighed.”

TNK-tPA, sequence (P00750 36-562 T138N/N152Q/K331A/H332A/R333A/R334A): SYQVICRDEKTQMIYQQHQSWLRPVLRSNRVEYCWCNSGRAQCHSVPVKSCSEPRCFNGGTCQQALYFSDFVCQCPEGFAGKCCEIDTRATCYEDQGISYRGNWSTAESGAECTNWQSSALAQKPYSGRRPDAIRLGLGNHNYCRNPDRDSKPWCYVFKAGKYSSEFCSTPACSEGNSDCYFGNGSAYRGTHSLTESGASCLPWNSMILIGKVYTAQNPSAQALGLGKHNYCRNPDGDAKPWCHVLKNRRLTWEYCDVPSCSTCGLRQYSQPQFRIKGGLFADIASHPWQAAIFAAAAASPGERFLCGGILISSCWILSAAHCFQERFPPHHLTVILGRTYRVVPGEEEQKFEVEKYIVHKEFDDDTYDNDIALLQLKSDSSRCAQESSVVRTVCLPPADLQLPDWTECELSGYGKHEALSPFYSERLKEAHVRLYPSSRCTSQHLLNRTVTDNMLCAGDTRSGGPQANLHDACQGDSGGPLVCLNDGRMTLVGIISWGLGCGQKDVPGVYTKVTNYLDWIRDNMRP
T1 sequence (P00750 36-562): as the sequence (P00750 36-562 T138N/N152Q/K331A/H332A/R333A/R334A) above, with N103T, Q117N, A296K, A297H, A298R, A299R counted along it

Regarding “tPA: tissue-type plasminogen activator, single-chain serine protease; rtPA is the recombinant form”, in [1], the non-cerebral bleeding episodes is 5.94%. Also, in the data set with isolated rat aorta rings, the “affinity of first (fast) epitope, inhibits PE induced vasoconstriction” value is “around 1 nM”. In addition, the “affinity of second epitope, stimulates PE-induced vasoconstriction” value with isolated rat aorta rings was “around 20 nM”. The “effect on PE-induced vasoconstriction” value is listed as “inhibited” in the data set on isolated rat aorta rings (1 nM); “inhibits” in the data set with isolated rat aorta rings (1 nM, listed as TA); “stimulated” in the data set on isolated rat aorta rings (20 nM). Also, the “capacity to induce vasodilatation” value with isolated rat aorta rings (FIG. 4) is on record as “has the capacity to induce vasodilatation”. The “effect on phenylephrine-induced vasoconstriction” value in the data set with isolated rat aorta rings (increased tPA concentrations (printed 1 nM; FIG. 4 uses 10 nM)) is reported as “stimulated”. Also, the “incidence of subsequent symptomatic intracerebral hemorrhage” value in data set [2] is recorded as “approximately six”. Moreover, in data set [2], the “patients with symptomatic intracerebral hemorrhage who die” value is on record as “approximately fifty”.

For `CNC[C@H](O)c1cccc(O)c1` [PE, phenylephrine, reference compound], the EC50 (commonly the concentration giving half of the maximal effect) in the data set with isolated rat aorta rings (Rattus norvegicus, control, before addition of plasminogen activator, read-out: EC50 of PE-induced constriction) came out at 34 nM.

As for “rRAP: LRP antagonist, recombinant receptor associated protein [reference compound]”, in the data set with TNK-tPA (anti-LRP antibodies or LRP antagonist), the “effect on vasoactive effect of TNK-tPA” value is given as “totally abolished”. Further, in the data set with tPA [3], the “effect on vasoactive effect of tPA” value was “totally abolished”.

“EEIIMD [SEQ ID NO:1, six amino acid peptide corresponding to residues 350 to 355 of PAI-1]”: the “effect on enhancing effect of uPA on phenylephrine-induced vasoconstriction” value with uPA [4] (concentration not given) is on record as “abrogates”. Besides, the “effect on enhancing effect of uPA on phenylephrine induced vasoconstriction” value in the data set with uPA [4] (same as on tPA, peptide at 10M (so in the source)) was “the same effect”. Moreover, the figures for the “effect on fibrinolytic activity of scuPA” value with scuPA and with scuPA (listed as 6 amino acid peptide) were “no effect” and “stimulates synergistically”, respectively. For the same compound, in the data set with uPA [5], the “effect on fibrinolytic activity of uPA” value is recorded as “no effect”. In addition, the “effect on fibrinolytic activity of tPA” value with tPA [6] is listed as “no effect”. Moreover, the “effect on catalytic activity of tPA (clot lysis, FIG. 7)” value with tPA [6] (100 nM tPA, peptide 10M (so in the source), 3 hours, room temperature) is reported as “no significant effect”. In addition, the “effect alone on contraction of aorta rings” value in the data set on isolated rat aorta rings (without tPA or uPA) is reported as “Neither PAI-1 nor alone had any effect”. For the same compound, the “effect on vasoactive effect of TNK-tPA” value with TNK-tPA (2 μM peptide) was “unaffected”; in the data set with TNK-tPA (10 μM peptide), “abolished”; in the data set with TNK-tPA (5 molar concentration of the peptide), “abolished”; in the data set with TNK-tPA (equimolar concentration of peptide), “unaffected”. The “effect on vasoactive effects of rtPA” value with tPA [3] (2 μM peptide) was “abolished”. Also, the “effect on enhancing effect of tPA on phenylephrine-induced vasoconstriction in aorta ring cultures” value with tPA [3] (concentration not given) is “abolishes”. Further, the “effect on enhancing effect of tPA on phenylephrine induced vasoconstriction” value with tPA [3] (peptide at 10M (so in the source)) is reported as “abolished”.
